The text below walks through data of paper PMC4475381, “Molecular basis for the recognition of cyclic-di-AMP by PstA, a PII-like signal transduction protein” (MicrobiologyOpen, 2015).

Assay [1] has as its target T1, PstA (LmPstA) (Listeria monocytogenes, UniProt Q8Y3Y7, F36A).
T1 construct: gene lmo2692; pstA F36A in pET20b, C-terminal His-tag
The experiment in a line: DRaCALA binding titration with […]-c-di-AMP.

In assay [2] the target is T2, PstA (LmPstA) (Listeria monocytogenes, UniProt Q8Y3Y7, N41A).
T2 construct: gene lmo2692; pstA N41A in pET20b, C-terminal His-tag
The experiment in a line: DRaCALA binding titration with […]-c-di-AMP (saturation not achieved).

Assay [3] deals with PstA (PII-like signal transduction protein A) from Listeria monocytogenes (Listeria monocytogenes). The experiment in a line: crystal structure; LmPstA (20 mg/mL) cocrystallised with 2.5 mmol/L c-di-AMP; sitting drop, 20°C, 12% PEG3350, 0.1 mol/L sodium malonate pH 4.0; 1.6 Å; trimer in the asymmetric unit.
Assay [4] has the same target. The experiment in a line: crystal structure; apo LmPstA (10 mg/mL); sitting drop, 20°C, 20% PEG3350, 0.1 mol/L bis-Tris pH 5.5, 0.1 mol/L ammonium acetate; 2.9 Å; trimer in the asymmetric unit.
For assay [5] the target is unchanged. The experiment in a line: SEC; gel filtration column (S-300, GE Healthcare) of purified LmPstA. For orientation: Size exclusion chromatography separates by hydrodynamic size, large species first.

On to `Nc1ncnc2c1ncn2[C@@H]1O[C@@H]2COP(=O)(O)O[C@H]3[C@@H](O)[C@H](n4cnc5c(N)ncnc54)O[C@@H]3COP(=O)(O)O[C@H]2[C@H]1O` [c-di-AMP], for which the values for the Kd in assay [1] and in assay [2] were 7 µM and about 140 µM, respectively.

In the case of “PstA (PII-like signal transduction protein A) from Listeria monocytogenes (natural protein)”, the stoichiometry N in assay [3], in assay [4] and in assay [5] was 3 in each case.

The Kd is a measure of binding affinity in units of concentration. Read a low Kd as higher affinity. A word on the stoichiometry N: it is a count of units in the complex or per binding partner.
